The nanobody polyreactivity screen of Harvey et al. (2022)

Test: yeast display, Sf9 membrane polyspecificity reagent, FACS + sequencing; frameworks hold sequencing errors
Procedure, shortened: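 Sorting gates, low and high (top ~1%), were placed on anti-HA fluorescence to track expression and on streptavidin fluorescence to track reagent binding. A clone's polyreactivity label is taken from the gate it came out of. The reagent was 10% biotinylated, detergent-solubilized Sf9 membrane, applied for 1 hour at 4 °C to galactose-induced yeast display cells.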

Sequence	polyreactivity (PSR sort gate)
QVQLVESGGGLVQAGGSLRLSCAASGFTFPVNAMGWYRQAPGKERELVATINSGGSTNYADSVKGRFTISRDNAKNTVYLQMNSLKPEDTAVYYCAAVTTDGVYAFDYWGQGTQVTVSS	low polyreactivity
QVQLVESGGGLVQAGGSLRLSCAASGFTFPVYAMGWYREAPGKERELVAAISTSAGSTYYADSVKGRFSISRDNAKNTVYLQLNSLKPEDTAVYYCNADVAGGYGWKSYHGYDYWGQGTQVTVSS	high polyreactivity
QVQLVESGGGLVQAGGSLRLSCAASGFTFPWNVMGWYRQAPGKEREFVAAISKSAGSTFYADSVKGRFTISRDNAKNTVYLQMNSLKPEDTAVYYCAKPRVPGVHVQEMYYWGQGTQVTVSS	low polyreactivity
QVQLVESGGGLVQAGGSLRLSCAASGFTFPWYAMGWDRQAPGKERELVASISYRGDSTYYADSVKGRFTFSRDNAKNTVYLQMNSLKPEDTAVYYCNKRLASYYLPGFDYWGQGTQVSVSS	low polyreactivity
QVQLVESGGGLVQAGGSLRLSCAASGFTFPWYAMGWYRQAPGKERELVAAISTSGDSTYYADSVKGRFTISRDNAKNTVYLQMNSLKPEDTAVYYCAARVVRGRYGYWGQGTQVTVSS	high polyreactivity
QVQLVESGGGLVQAGGSLRLSCAASGFTFPWYAMGWYRQAPGKERELVATITRGGSTYYADSVKGRFTISRDNAKNTVYLQMNSLKPEDTAVYYCAVTYWRYHSYSPYDYWGQGTQVTVSS	high polyreactivity
QVQLVESGGGLVQAGGSLRLSCAASGFTFPWYTMGWYRQAPGKERELGAAINSRGGSTYYADSVKGRFTISRDNAKNTVYLQMNSLKPEDTAVYYCATRSFGRMDYWGQGTQVTVSS	high polyreactivity
QVQLVESGGGLVQAGGSLRLSCAASGFTFPYYAMGWYRQAPGKERELVAAISSGGNTNYADSVKGRFTISRDNAKNTVYLQMNSLKPEDTAVYYCAAVFLRYLNWSVKYDYWGQGTQVTVSS	low polyreactivity
QVQLVESGGGLVQAGGSLRLSCAASGFTFQENAMGWYRQAHGKERELVAAISTSGDSTYYADSVKGRFTISRDNAKNTVYLQMNSLKPEDTAVYYCATAYEVLVACVLYDYWGKGTQVTVSS	low polyreactivity
QVQLVESGGGLVQAGGSLRLSCAASGFTFQENAMGWYRQATGKERELVAAISKSGGITYYADSVKGRFTISRENAKNNVYLQMNSLKPEDTAVYYCNIGNAYVVYTSGYDYWGQGTQVTVSS	low polyreactivity
QVQLVESGGGLVQAGGSLRLSCAASGFTFQFYAMGWYRQAPGKERELVAAITWSGGSTYYADSVKGRFTISRDNAKNSVYLQLKSLKPEDTAVYFCAKDRRTYLSYIYDYWGQGTQVTVSS	high polyreactivity
QVQLVESGGGLVQAGGSLRLSCAASGFTFQIYAMGWYRQAPGKERELVAAITWSGGRTYYGDSVKGRFTISRDNAKNTVYLQMNSLKREDTAVYYSNARYTTGSDPGGPGTYGYWGQGTQVTVSS	low polyreactivity
QVQLVESGGGLVQAGGSLRLSCAASGFTFQRNAMGWYRPAPGKERELVAAISKSGGSTYYADSVKGRFTISRDNAKNTVYLQMNSLKPEDTAVYYCARDRGYQSGYDYWGQGTQVTVSS	high polyreactivity
QVQLVESGGGLVQAGGSLRLSCAASGFTFQRYAMGWYRQAPGKERELVAAISGSGGSTYYADSVKGRFTISRDNAKNTVYLQMNSLKPEDTAVYYCAARYKYKDLYRYDYWGQGTQVTVSS	high polyreactivity
QVQLVESGGGLVQAGGSLRLSCAASGFTFQRYAMGWYRQAPGKERELVAGITRRSGSTFYADSVKGRFTISRDNAKNNVYLLMNSLKPEDTAVYYCAATVPGLHWIYDFWGQGTQVTVSS	high polyreactivity
QVQLVESGGGLVQAGGSLRLSCAASGFTFQSNAMGWYRQAPGKERELVATISLTGGSTYYADSVKGRFTISRDNAKNTVYLQMNSLKPEDTAVYYCNAVRYASPYGYWGQGTQVTVSS	high polyreactivity
QVQLVESGGGLVQAGGSLRLSCAASGFTFQYYAMGWYRQAPGKERELVAAISRSGGSTYYADSVKGRFTISRDNAKNTVYLQMNSLKPEDTAVYYCAKDRVGARRTDYDYWGQGTQVTVSS	high polyreactivity
QVQLVESGGGLVQAGGSLRLSCAASGFTFQYYTMGWYRQAPGKERELVAAISGSGGRTYYADSVKGRFTISRDNAKNTVYLQMNSLKPEDTAVYYCAKVYNRVYYGKGDYWGQGTQVTVSS	high polyreactivity
QVQLVESGGGLVQAGGSLRLSCAASGFTFRANGMGWYRQATGKERELVATITSGGTTNYADSVKGRFTISRDNAKNTVYLQMNSLKPEDTAVYYCAKRFGPAYFRLYDYWGQGTQVTVSS	low polyreactivity
QVQLVESGGGLVQAGGSLRLSCAASGFTFRAYAMGWYRQAPGKEREFVAAISRRGGSTSYADSVKGRFTISRDIAKNTVYLQMNSQKPEDTSVYYCAADVQEEYDYWGQGTQVTVSS	high polyreactivity
QVQLVESGGGLVQAGGSLRLSCAASGFTFRAYAMGWYRQAPGKERELVAAINISGGSTYYADSVKGRFTISRDNAKNTVYLQMNSLKPEDTAVYYCAADWPEDWYTEYGYWGQGTQVTVSS	low polyreactivity
QVQLVESGGGLVQAGGSLRLSCAASGFTFRAYAMGWYRQAPGKERELVAAITSGTRTYYADSVKGRFTISRDNAKNTVYLQMNSLKPEDTAVYDCAVGFILPSTFTRMYYWGQGTQVTVSS	high polyreactivity

Sequence	polyreactivity (PSR sort gate)
QVQLVESGGGLVQAGGSLRLSCAASGFTFRAYAMGWYRQAPGKERELVAGITRSGGSTHYADSVKGRFTISRDNAKNTVYLQMNSLKPEDTAVYYCNARYPYRGKRKPPDYWGQGTQVTVSS	high polyreactivity
QVQLVESGGGLVQAGGSLRLSCAASGFTFRAYTMGWYRQAPGKERELVAAITYSGGRTYYADSVKGRFTISRDNAKNTVYLQMNSLKPEDTAVYYCATRGWALSEYYYWGQGTQVTVSS	high polyreactivity
QVQLVESGGGLVQAGGSLRLSCAASGFTFRAYTMGWYRQAPGTERGLVAAITYSGGRTYYADSVKGRFTISRDNAKNTVYLQMNSLKPEDTAVYYCAAVRTKVWRGPEMDYWGQGTQVTVSS	high polyreactivity
QVQLVESGGGLVQAGGSLRLSCAASGFTFRAYVMGWSRQAPGKERELVAAISRSGGSTYYADSVKGRLTISRDNAKNTVYLQMNSLKPEDTAVYYCAAGVPGPRVKIQARFDYWGQGTQVTVSS	high polyreactivity
QVQLVESGGGLVQAGGSLRLSCAASGFTFRDYAMGWSRQAPGKERELVAAISRSGDSTYYADSVKGRFTISRDNAKNTVYLQMNSLKPEDTAVYYYAAKRRYTTYDYWGQGTQVTVSS	high polyreactivity
QVQLVESGGGLVQAGGSLRLSCAASGFTFRDYAMGWYRQAPGKEREFIADITFSGDNTRYADSVKGRFTISRDNAKNTVYLQMNSLKREDTAVYYCNADYLVSWLQFDYWGQGTQVTVSS	low polyreactivity
QVQLVESGGGLVQAGGSLRLSCAASGFTFRDYAMGWYRQAPGKERELVAAISFSGGRTFYADSVKGRFTISRDNAKNTVYLQMNSLKPEDTAVYYCNAQYLTYRYYPRRNLDYWGQGTQVTVSS	high polyreactivity
QVQLVESGGGLVQAGGSLRLSCAASGFTFRFNAMGWYIQAPGKERELVAAIRQSGGSTYYADSVKGRFTISRDNAKNTVYLQMNSLKPEDTAVYYCATRYFTGYGLRPQFYYWGQGTQVTVSS	high polyreactivity
QVQLVESGGGLVQAGGSLRLSCAASGFTFRGNAMGLYRQAPRKERELVATITYNAGSTYYADSVKGRFTISRDNAKNTVYLQMNSLKPEDTAVYYCAVELDSVPDYEPWTEYDYWGQGTQVTVSS	low polyreactivity
QVQLVESGGGLVQAGGSLRLSCAASGFTFRGYAMGWYRPAPGKERELVAAIRGGGGRTYYADSVKGRFTISRDNAKNTVYLQMNSLKPEDTAVYYCAKVVSIRNDEYDYWGQGTQVTVSS	high polyreactivity
QVQLVESGGGLVQAGGSLRLSCAASGFTFRGYAMGWYRQAPGKERELVADITSGGSTYYADSVKGRFTISRDNAKNTVYLQMNSLKPEDTAVYYFATDILYWSDYAYEGYYTLDYYWGQGTQVTVSS	high polyreactivity
QVQLVESGGGLVQAGGSLRLSCAASGFTFRGYVMGGYRQAPGKERELVAAITNIGTSTYYAHSVKGRFTISRDNAKNTVYVQMNSLKPEDTGVFFCAARLSTKFYYWGQVTQVTVSS	low polyreactivity
QVQLVESGGGLVQAGGSLRLSCAASGFTFRHNGMGWYIQAPGKERELVATITWSGGRTSYADSVKGRFTISRDNAKNTVYLQMNSLKPEDTAVYYCAARFFSYSQYAYNYWGQGTQVTVSS	high polyreactivity
QVQLVESGGGLVQAGGSLRLSCAASGFTFRIYAMGWYRQAPGKERELVAAITSSGGTTYYADSVKGRFTISRDNAKNTVYLQMNSLKPEDTAVYYCNVAGFKYYSWGTYDYWGQGTQVTVSS	high polyreactivity
QVQLVESGGGLVQAGGSLRLSCAASGFTFRIYAMGWYRQAPGKERELVAAITSVGSTYYADSVKGRFTISRDNAKNTVYLQMNRLKPEDTAVYYCNARATYYRFRYPYGYWGQGTQVTVSS	high polyreactivity
QVQLVESGGGLVQAGGSLRLSCAASGFTFRIYTMGWYRQAPGKERELVAAISSRGGSTYYADSVKGRFTISRDNAKNTVDLQMNSLKPEDTAVYYCAASGRVYSSGYDYWGQGTQVTVSS	high polyreactivity
QVQLVESGGGLVQAGGSLRLSCAASGFTFRKYAMGWYRQAPGKERELVASITSGGSTYYADSVKGRFTISRDNAKNTVYLQMNSLKPEDTAVYYCNAVKATLASGRLRGAYYYWGQGTQVTVSS	high polyreactivity
QVQLVESGGGLVQAGGSLRLSCAASGFTFRQYALGWYRQAPGKERELVAAISSGGSTYYADSVKGRFTISRDNAKNTVYLQMNSLKPEDTAVYYCNAVARYYVAYDMYWGQGTQVTVSS	high polyreactivity
QVQLVESGGGLVQAGGSLRLSCAASGFTFRQYSMGWYRQARGKERELVAGISSSGGSTRYADSVKGRFTISRDNAKNTVYFQMNSLKPEDTAVYYCAARIASHHYYYWGQVTQVTVSS	high polyreactivity
QVQLVESGGGLVQAGGSLRLSCAASGFTFRRNAMGWYRQAPGKERELVAAITGRGTGTYYADSVKGRFTISRDNAKNTVYLQMNSLKPEDTAVYYCNADPVRYLFTRYDYWGQGTQVTVSS	high polyreactivity
QVQLVESGGGLVQAGGSLRLSCAASGFTFRRNAMGWYRQAPGKERELVAVITTAGSTNYADSVKGRFTISRDNAKNTVYLQMTSLKPEDTAVYYCATDNGTRKRRYDYWGQGTQVNVSS	low polyreactivity
